These results are taken from article PMC6529018.

In the assay the target is Recombinant His-BifA (full length) (Streptococcus equi subsp. zooepidemicus ATCC35246). Nature of the assay: SPR; Biacore X100; His-BifA and its variants immobilised on NTA sensorchips, moesin, moesin T558A or moesin T558D injected. (In general: SPR reads the build-up and loss of mass on a sensor chip optically.)

On to “Recombinant moesin T558D, non-tagged (from UniProt P26038 1-577) (natural protein)”, for which the dissociation constant (Kd) is 10.8 nM.

As for “Recombinant moesin T558A, non-tagged (from UniProt P26038 1-577) (natural protein)”, the Kd was 737 nM.

As usually defined, the Kd is the constant that tells how readily two partners part at equilibrium.
